These results are taken from paper PMC7816212 (Nature, 2020).

The target in test [1] is BodipyFL-labeled BCL6^5−360 (human, UniProt A5PL18 5-360, BodipyFL label (site not stated)). Kind of test: FRET or BRET. In general terms: BRET reads energy transfer from a luciferase to a nearby fluorophore.
The target in the next test is biotinylated BCL6^5−129 (human, UniProt A5PL18 5-129, biotin). Kind of test: FRET or BRET.

No end group written: not given here. *: point of attachment. FITC = O=C1OC2(c3ccc(O)cc3Oc3cc(O)ccc32)c2ccc(NC(=S)*)cc21

B1: biotinylated Strep II Avi-tagged SIAH1^SBD (domain or fragment)
chain: VANSVLFPCKYASSGCEITLPHTEKADHEELCEFRPYSCPCPGASCKWQGSLDAVMPHLMHQHKSITTLQGEDIVFLATDINLPGAVDWVMMQSCFGFHFMLVLEKQEKYDGHQQFFAIVQLIGTRKQAENFAYRLELNGHRRRLTWEATPRSIHEGIATAIMNSDCLVFDTSIAQLFAENGNLGINVTISMC
modifications: biotin
A word on the Kd: it is the concentration at which binding is half-saturated. Low values mean a tighter complex, high ones a looser complex. In test [1], B1 returned a Kd of 0.2 µM.
On to {FITC}-RSEIISTAPSSWVVPGP [N-terminal FITC-labeled BCoR peptide], for which the binding result in the test with biotinylated BCL6^5−129 is “binds”.
